Measurements taken from patent publication US20260184815A1 (published 2026).
Read-outs that look alike come from different tables or passages of the source.

Assays:
human plasma kallikrein [1] = target: T1, human plasma kallikrein (human, UniProt P03952 20-390; P03952 391-638); assay: ELISA, biotinylated pKal signal over streptavidin background
T1 construct: also called pKal; Human pKal
Source text: Abbreviations used: “T/B” is the ELISA signal obtained using of the “target” (biotinylated plasma kallikrein) divided by the ELISA signal of the “background” (streptavidin); both of which were coated on microtiter plates, “nd” is not determined. The symbol “q” refers to the amber suppressible stop codon (TAG), which is translated as glutamine (Q) in strains of E. coli such as the TG1 cells that were used to express the Fab fragments.
T1 sequence (P03952 20-390, chain 1 of 2): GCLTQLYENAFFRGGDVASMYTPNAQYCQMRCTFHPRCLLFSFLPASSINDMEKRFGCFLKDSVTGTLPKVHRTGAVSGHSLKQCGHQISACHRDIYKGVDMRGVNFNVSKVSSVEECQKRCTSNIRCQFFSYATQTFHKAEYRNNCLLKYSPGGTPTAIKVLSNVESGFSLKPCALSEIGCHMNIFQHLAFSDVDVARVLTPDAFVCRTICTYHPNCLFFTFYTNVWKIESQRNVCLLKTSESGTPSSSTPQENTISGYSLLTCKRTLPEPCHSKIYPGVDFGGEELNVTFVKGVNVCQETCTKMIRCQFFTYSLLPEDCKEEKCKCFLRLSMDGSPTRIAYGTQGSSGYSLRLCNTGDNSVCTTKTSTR
T1 sequence (P03952 391-638, chain 2 of 2): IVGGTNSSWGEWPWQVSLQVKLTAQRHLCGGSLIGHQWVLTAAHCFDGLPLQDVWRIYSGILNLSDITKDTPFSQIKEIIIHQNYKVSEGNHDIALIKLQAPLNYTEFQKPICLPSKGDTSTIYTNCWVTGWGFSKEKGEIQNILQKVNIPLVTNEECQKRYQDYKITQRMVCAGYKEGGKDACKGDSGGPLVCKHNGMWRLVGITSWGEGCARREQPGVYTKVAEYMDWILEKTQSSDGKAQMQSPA

[2] = target: T2, pKal catalytic domain Mutant 2 (human, UniProt P03952 391-638, limits assumed); assay: enzyme inhibition, equilibrium Ki,app
T2 construct: domain: catalytic domain; Expressed in Pichia pastoris, purified by IMAC; not shown: His tag fusion
T2 sequence (P03952 other isoform, or with tags, fused parts or gaps mutant limits assumed): as the sequence (P03952 391-638, chain 2 of 2) above, with R161A, Q163A, Y165A, T168A, R170A counted along it

human plasma kallikrein [3] = target: T3, human plasma kallikrein (human, UniProt P03952 20-390; P03952 391-638); assay: cell-based or functional assay
T3 sequence (P03952 20-390, chain 1 of 2): as the sequence (P03952 20-390, chain 1 of 2) above
T3 sequence (P03952 391-638, chain 2 of 2): as the sequence (P03952 391-638, chain 2 of 2) above

human plasma kallikrein [4] = target: T3, human plasma kallikrein; assay: cell-based or functional assay; remark: listed apart in the source

Binder | ELISA (T/B) (human plasma kallikrein [1]) | further results
M8-E06 (Fab, V domains shown, HC as printed runs into CH1) VH: EVQLLESGGGLVQPGGSLRLSCAASGFTFSHYFMTWVRQAPGKGLEWVSSIVPSGGMTQYADSVKGRFTISRDNSKNTLYLQMNSLRAEDTAVYYCARDSYSSSWFDIWGQGTMVTVSS VL: not shown | 8.8 | 
M6-D09 (antibody, V domains shown, also called M06-D09; 559A-M06-D09) VH: EVQLLESGGGLVQPGGSLRLSCAASGFTFSFYYMVWVRQAPGKGLEWVSVIYPSGGITVYADSVKGRFTISRDNSKNTLYLQMNSLRAEDTAVYYCARDKWAVMPPYYYYAMDVWGQGTTVTVSS VL: DIQMTQSPSSLSASVGDRVTITCRASQSIRNYLNWYQQKPGKAPNLLIYAASTLQSGVPARFSGSGSGTDFTLTISSLQPEDFATYYCQQLSGYPHTFGQGTKLEIK |  | fold increase of Ki,app against the wild type catalytic domain [2]: ~5 fold
M6-D03 (Fab, V domains shown, HC as printed runs into CH1) VH: EVQLLESGGGLVQPGGSLRLSCAASGFTFSKYFMGWVRQAPGKGLEWVSVIGSSGGWTSYADSVKGRFTISRDNSKNTLYLQMNSLRAEDTAVYYCARVSTAVADNDYWGQGTLVTVSS VL: not shown | 15.5 | 
M197-G10 (Fab, V domains shown) VH: EVQLLESGGGLVQPGGSLRLSCAASGFTFSVYAMRWVRQAPGKGLEWVSSIYPSGGKTWYADSVKGRFTISRDNSKNTLYTLQMNSLRAEDAVYYCAYRRTGIPRRDAFDIWGQGTMVTVSS VL: DIQMTQSPSTLSASVGDRVTITCRASQSISSWLAWYQQKPGKAPNLLIYKASTLESGVPSRFSGSGSGTEFTLTISSLQPDDFATYYCQQYNTYWTFGQGTKVEIK |  | % inhibition at 10 nM (human plasma kallikrein [3]): 67.6%
M201-F11 (Fab, V domains shown) VH: EVQLLESGGGLVQPGGSLRLSCAASGFTFSHYIMMWVRQAPGKGLEWVSGIYSSGGITVYADSVKGRFTISRDNSKNTLYLQMNSLRAEDTAVYYCAYRRSGIPRRDAFDIWGQGTMVTVSS VL: DIQMTQSPSTLSASVGDRVTITCRASQSISSWLAWYQQKPGKAPNLLIYKASTLESGVPSRFSGSGSGTEFTLTISSLQQPDDFATYYCQYNTYWTFGQGTKVEIK |  | % inhibition at 10 nM (human plasma kallikrein [3]): 15.7%
M198-A01 (Fab, V domains shown) VH: EVQLLESGGGLVQPGGSLRLSCAASGFTFSPYTMIWVRQAPGKGLEWVSSISSSGGMTPYADSVKGRFTISRDNSKNTLYLQMNSLRAEDTAVYYCAYRRTGIPRRDAFDIWGQGTMVTVSS VL: DIQMTQSPSTLSASVGDRVTITCRASQSISSWLAWYQQKPGKAPNLLIYKASTLESGVPSRFSGSGSGTEFTLTISSLQPDDFATYYCQQYNTYWTFGQGTKVEIK |  | % inhibition at 10 nM (human plasma kallikrein [3]): 13.8%
M209-C12 (Fab, V domains shown) VH: EVQLLESGGGLVQPGGSLRLSCAASGFTFSHYLMTWVRQAPGKGLEWVSYISPSGGHTIYADSVKGRFTISRDNSKNTLYLQMNSLRAEDTAVYYCARVGRGIAARSRTSQLDYWGQGTLVTVSS VL: DIQMTQSPGTLSLSPGERATLSCRTSQFVNSNYLAWYQQTPGQAPRLLIYGASSRATGIPDRFSGTGYGTDFTLTISRLEPEDYGTYYCQQSSRTPWTFGQGTRVEIK |  | % inhibition at 10 nM (human plasma kallikrein [4]): 93.4%
M209-D03 (Fab, V domains shown) VH: EVQLLESGGGLVQPGGSLRLSCAASGFTFSHYLMTWVRQAPGKGLEWVSYISPSGGHTIYADSVKGRFTISRDNSKNTLYLQMNSLRAEDTAVYYCARVGRGIAARSRTSFFDQWGQGTLVTVSS VL: DIQMTQSPGTLSLSPGERATLSCRTSQFVNSNYLAWYQQTPGQAPRLLIYGASSRATGIPDRFSGTGYGTDFTLTISRLEPEDYGTYYCQQSSRTPWTFGQGTRVEIK |  | % inhibition at 10 nM (human plasma kallikrein [4]): 80.4%
M8-D05 (Fab, V domains shown, HC as printed runs into CH1) VH: EVQLLESGGGLVQPGGSLRLSCAASGFTFSLYNMNWVRQAPGKGLEWVSSISPSGGFTDYADSVKGRFTISRDNSKNTLYLQMNSLRAEDTAVYYCARDLDLGILDYWGQGTLVTVSS VL: DIQMTQSPSFVSASVGDRVTITCRASQDISSWLVWYQQKPGKGPKLLIYDASNLQSGVPSRFSGGGSGTHFTLTISSLQPEDFATYYCQQADGFPLTFGGGTKVEMK | 11.9 | 
M8-G09 (Fab, V domains shown, HC as printed runs into CH1) VH: EVQLLESGGGLVQPGGSLRLSCAASGFTFSLYEMLWVRQAPGKGLEWVSVIYPSGGYTDYADSVKGRFTISRDNSKNTLYLQMNSLRAEDMAVYYCARSFSGFGEIDYWGQGTLVTVSS VL: DIQMTQSPSSLSASVGDTVTITCRASQGVSYYLAWFQQKPGKAPKSLIYGASSLQSGVPSKFSGSGSGTVFTLTISSLQPDDFATYYCQQYNTYPPTFGQGTRLDIK | 28.2 | 
M8-C04 (Fab, V domains shown, HC as printed runs into CH1) VH: EVQLLESGGGLVQPGGSLRLSCAASGFTFSYYPMQWVRQAPGKGLEWVSYIYPSGGLTSYADSVKGRFTISRDNSKNTLYLQMNSLRAEDTAVYYCARLFYGSGSVGFEYWGQGTLVTVSS VL: QSALTQPPSVSVSPGQTASITCSGDKLGDKYTSWHQQKPGQSPVLVIYQDSKRPSGIPERFSGSNSGNTATLTISGTQAMDEADYYCQAWDSSTVFGGGTRLTVL | 44.7 | 
M6-D08 (Fab, V domains shown, HC as printed runs into CH1; LC amber q (WYqQK) written as Q) VH: EVQLLESGGGLVQPGGSLRLSCAASGFTFSRYHMVWVRQAPGKGLEWVSSISPSGGWTNYADSVKGRFTISRDNSKNTLYLQMNSLRAEDTAMYYCAREMATIAGQFDPWGQGTLVTVSS VL: DIQMTQSPSSLSASVGDRVTITCRASQSISSYLNWYQQKPGKAPKLLIYGASSLQSGVPSRFSGSGSGTDFTLTISSLQPEDSATYYCQQSYTRWTFGQGTKVEIK | 16 | 
M6-G05 (Fab, V domains shown, HC as printed runs into CH1) VH: EVQLLESGGGLVQPGGSLRLSCAASGFTFSRYRMVWVRQAPGKGLEWVSSIYPSGGMTAYADSVKGRFTISRDNSKNTLYLQMNSLRAEDTAVYYCARDAVGIGDAFDIWGQGTMVTVSS VL: DIQMTQSPSSLSASVGDRVTITCRASQSISTYLNWYQLKPGKAPKLLIYNAFSMERGVPSTISGSGSGTDFTLTISSLQPEDFATYYCQQSYTTPTTFGQGTKVEIK | 18.5 | 

Further lines, with some results ahead:

ELISA (T/B) (human plasma kallikrein [1]) | Binder | further results
5.5 | M9-A08 (Fab, V domains shown, HC as printed runs into CH1) VH: EVQLLESGGGLVQPGGSLRLSCAASGFTFSAYEMWWVRQAPGKGLEWVSYIGSSGGSTSYADSVKGRFTISRDNSKNTLYLQMNSLRAEDTAVYYCTGGNSSSFDAFDIWGQGTMVTVSS VL: DIQMTQSPSSLSASVGDRVTVTCRASQRISTYLNWYQQKPGKAPKLLISGASSLQSGVPSRFSGSGSGTDFTLTISSLQPDDFATYYCQQSYNTPRTFGQGTKVEIR | 
3.3 | M8-H04 (Fab, V domains shown, HC as printed runs into CH1) VH: EVQLLESGGGLVQPGGSLRLSCAASGFTFSGYWMGWVRQAPGKGLEWVSSISSSGGWTQYADSVKGRFTISRDNSKNTLYLQMNSLRAEDTATYYCARDDEIAAGGAFDIWGQGAMVTVSS VL: DIQMTQSPSSLSASIGDRVTITCRASQYISTYLNWYEQKPGKAPKLLIYGTSSLQSGVPSRFSGSGSGTEFSLTISSLQPEDFATYYCQQSFTTPFTFGQGTKLEIK | 
14.4 | M9-A03 (Fab, V domains shown, HC as printed runs into CH1) VH: not shown VL: DIQMTQSPSSLSASLGDRVTITCRASQNIDIYLNWYQQTPGKAPKLLIYGAYNLQSGVPSRFSGSGSGTDFTLTISSLQPEDFGTYYCQQSYGTPVFGQGTKLEIK | 
10.9 | M9-C08 (Fab, V domains shown, HC as printed runs into CH1) VH: EVQLLESGGGLVQPGGSLRLSCAASGFTFSHYGMVWVRQAPGKGLEWVSYIVPSGGLTYYADSVKGRFTISRDNSKNTLYLQMNSLRAEDTAVYYCARVDYTGDGLGYWGQGTLVTVSS VL: DIQMTQSPSSLSASVGDRVTITCRASQSISIYVNWYQQKPGKAPNLLIFAASSLQRGVPSRFSGSGSGADFTLTISSLQPEDFATYYCQQSFSTPLTFGGGTKVEIK | 
23.4 | M6-A08 (Fab, V domains shown, HC as printed runs into CH1) VH: EVQLLESGGGLVQPGGSLRLSCAASGFTFSPYPMQWVRQAPGKGLEWVSSISSSGGMTEYADSVKGRFTISRDNSKNTLYLQMNSLRAEDTAVYYCARDDYGGKGGAFDIWGQGTMVTVSS VL: DIQMTQSPSSLSASVGDRVTITCRASQRISFYLNWFQQKPGKAPNLLIYGASSLQSGVPSRFSGSGSGTDFTLTISSLQPKDFGTYYCQQTFSTPNTFGQGTKLEIK | 
